The values below come from US20230382979A1 (ADAPTIVE BIOTECHNOLOGIES, published 2023).

The labels stand for the following.
B1: antibody 980 (antibody, V domains shown)
VH: QVQLVESGGGVVQPGRSLRLSCAASGFTFSRYGMHWVRQAPGKGLEWVALISSGGSNKYYADSVKGRFTISRDNSKNTLYLEMNSLRAEDTAVYYCAKDAIYDYIWGAYRENWFDPWGQGTLVTVSS
VL: DIQMTQSPSSLSASVGDRVTITCRASQSISNYLNWYQQKPGKAPNLLIYAASSLQSGVPSRFSGSGSGTDFTLTISSLQPEDFATYYCQQTSSPPLTFGQGTKVEIK
B2: antibody 2619 (antibody, V domains shown)
VH: EVQLVESGGGLVQPGRSLRLSCAASGFTFDDYAMHWVRQAPGKGLEWVSGISWNSGSIGYADSVKGRFTLSRDNAKNSLFLQMDSLRAEDTALYYCAKDVSYRSGSYYRFWGGSGSWGQGTLVTVSS
VL: B1 VL with Q27L, S30R, N31S, A43P, N45K, T91S, S92Y, P94T, Q100G
B3: antibody 1679 (antibody, V domains shown)
VH: QITLKESGPTLVKPTQTLTLTCTFSGFSLSTVGVGVAWIRQPPGKALEWLALIYWDDDKRYSPSLKSRLTITKDTSKNHVVLTMTNMDPVDTATYYCAHHIIAALVDVWGKGTTVTVSS
VL: QSALTQPASVSGSPGQSITISCTGTSSDVGGNNYVSWYQHHPGEAPKLMIYEVSNRPSGVSNRFSGSKSGNTASLTISGLQAEDEADYYCSSYTTSSTLVVFGGGSKLTVL
B4: antibody 1213 (antibody, V domains shown)
VH: QMQLVQSGAEVKKTGSSVKVSCEASENTFTNRYLHWVRQAPGQALEWMGWITPFQGNTHYAQKFQDRVTITRDRSMNTVYMELSSLRSEDTAIYYCASGGQYGPGSYYFEFWGQGTLVTVSS
VL: EIVMTQSPATLSVSPGERATLSCRASQSIRNNLAWYRQKPGQAPRLLIYGASTRAAGVPARFSGSGSGTEFTLTISSLQSEDFAVYYCQQYINWPPLTFGGGTKVEIK
B5: antibody 1227 (antibody, V domains shown)
VH: B4 VH with E26G, N27Y, H59N, R74M, I93K, P104A, F109L, F111D
VL: B4 VL with I29V, N31S, A56T, K104R
B6: antibody 2729 (antibody, V domains shown)
VH: QVTLKESGPVLVKPTETLTLTCTVSGFSLSNARMGVSWIRQPPGKALEWLAHIFSNDEKSYSTYLKSRLTISKDSSKSQVVLTMTIMDPVDTATYYCARTAGRYSSRWGHYYYYMDVWGKGTTVTVSS
VL: NFMLTQPHSVSESPGKTVTISCTGSNGSIASNFMQWYQQRPGSAPTIVIYEDNQRPSGVPDRFSGSIDGSSNSASLTISGLKTEDEADYYCQSYDSSDSDLGVFGGGTKLTVL
B7: antibody 2706 (antibody, V domains shown)
VH: QVQLVQSGAEVKKPGSSVKVSCKASGGTFSTYAISWVRQAPGQGLEWMGGIIPLFATANYAQNFQGRVTITADKSTSTAYMELSSLRSEDTAVYYCASVRLHLEELSLSHQGDYYYGLDVWGQGTTVTVSS
VL: DIQMTQSPSSLSASVADRVTITCQASQDISHYLNWYQQKPGKAPQLLIYDASKLETGAPSRFSGSGSGTDFTFTISSLQPEDIATYYCQQYDHLPLTFGGGSKVEIK
B8: antibody 4441 (antibody, V domains shown)
VH: EVQLVESGGGLVQPGRSLRLSCAASGLTFEDYAMHWVRQPPGKGLEWVSGVSWNSGTIGYADSVKGRFTISRDNAKNSLYLHMRSLGAEDTAMYYCAKDMGGRFSFFSLENDAFDIWGQGTMVIVSS
VL: SYELTQPPSVSVSPGQTARITCSGDALPKQSTYWYQQKPGQAPVLVIYKDIERPSGIPERFSGSSSGTTVTLTISGVQAEDEADYYCQSADSSDTYVFGTGTKVTVL
B9: antibody 935 (antibody, V domains shown)
VH: EVQLVESGGGLVQPGGSLRLSCAASGFTVSSNYMSWVRQAPGKGLEWVSVIYSGGSTFYADSVKGRFTISRDNSRNTLYLQMNSLRAEDTAVYYCARDWGEFFFDFWGQGALVTVSS
VL: EIVLTQSPGTLSLSPGERATLSCRASQTISSSYLAWYQQKPGQAPRLLISGASSRATGIPDRFSGSGSGTDFTLTISRLEPEDFAVYYCQQYGSSPRTFGQGTNVEIK
B10: antibody 2892 (antibody, V domains shown)
VH: QVQLVQSGAEVKKPGSSVKVSCKASGDAFISYAISWVRQAPGQGLEWMGGIIPIFGTANYAQKFQGRVTISADESTSTAYMELSRLRSEDTAVYYCARGGPEPYGSGSGYTPRYNWFDPWGQGTLVTVSS
VL: QSALTQPRSVSGSPGQSVTISCTGTSSDVGGYNYVSWYQQHPGKAPKFMIYDVNRRPSGVPDRFSGSKSGNTASLTISGLQAEDEADYYCCSYAGTYTWVFGGGTKLTVL
B11: antibody 2020 (antibody, V domains shown)
VH: QVQLVQSGAEVKKPGASVKVSCKASGYTFTDYFMHWVRQAPGQGLEWMGWVNPLSGGTNFAQKFQGRVTMTSDTSITTVYMELSRLRSDDTAVYYCARDPPLYSSTYGMDVWGQGTTVTVSS
VL: QSALTQPASVSGSPGQSITISCTGTSSDVGAYNYVSWYQQHPGKAPKLMIYDVSDRPSGVSNRFSGSKSGNTASLTISGLQAEDEADYYCSSYTISSSVVFGGGTKLTVL
B12: antibody 1231 (antibody, V domains shown)
VH: QVQLVQSGSELKKPGASVKVSCTGYGYTFTSYAMNWVRQAPGQGLEWMGWINTNTGHPAYAQGFTGRFVFSLDSSVSTAYLQISSLKAEDTAVYYCATTIRAGGYFDFWGQGTLVTVSS
VL: DIQLTQSPSFLSASVGDRVTITCRASQGISSYLAWFQQKPGKAPKLLIYVVSILQSGVPSRFSGSGSGTEFTLTISSLQPEDFATYYCQQLNSYPYTFGQGTKLEIK
B13: antibody 3086 (antibody, V domains shown)
VH: QVQLQESGPGLVKPSETLSLTCTVSGGSISGHYWSWIRQPPGKGLEWIGYIYYSGSTNYNPSLKSRVTISVDTSVNQFSLKLSSVTAADTAVYYCARQEARDAVGNYFFDSWGQGTLVTVSS
VL: QSALTQPASVSGSPGQSITISCSGTSSDIGSYDLVSWYQQHPGKAPKLLIYDVTKRPSGVSHRFSGSKSGNTASLTISGLQGEDEADYYCCSYVHFSTWVFGGGTKLTVL
B14: antibody 2050 (antibody, V domains shown)
VH: QVQLVQSGAEVKKPGASVKVPCKVSGYTFTDHFIHWVRQAPGQGLEWMGWISPNSGGRNYTQKFQGRVTLTRDTAITTVHMDLSSLTPDDTAVYYCARDVRWAQLQGGFDLWGQGTMVTVSS
VL: QSALTQPASVSGSPGQSITISCTGTSSDVGSYNLVSWYQQHPGKAPKLMIYEVSKRPSGVSNRFSGSKSGNTASLTISGLQADDEADYYCCSYAGDNNFLFGGGTSLTVL
B15: antibody 1864 (antibody, V domains shown)
VH: QVQLQESGPGLVKPSETLSLTCTVSGGSINYYYWSWIRQPPGKGLEWIGFIYSSGTTNYNPSLKSRVTMSVDSSKSQFSLKLSSVTAADSAVYYCARHSRSCTNGVCQTYYYYALDVWGHGTTVTVSS
VL: QSVLTQPPSVSGAPGQRVTISCTGSSSNIGAGYDVHWYQQLPGTAPKLLIYGNSNRPSGVPDRFSASKSGTSASLAIAGLQPEDEGDYYCQSYDGSLSESGVFGGGTRLTVL
B16: antibody 1851 (antibody, V domains shown)
VH: B15 VH with P40S
VL: B15 VL
B17: antibody 1870 (antibody, V domains shown)
VH: B15 VH with T23S, S73T, S76N
VL: B15 VL with P82A
B18: antibody 1826 (antibody, V domains shown)
VH: QVQLQESGPGLVKPSETLSLTCSVTGGSTNYYYWSWIRQPPGKGLEWIGYIYYSGTTNYNPSLKDRVTMSVDKSKTQLSLKLNSVTAADTAVYYCARHARHCTNGVCQTYYYYGLDVWGLGTTVAVSA
VL: QSVLTQPPSVSAAPGQRVTISCSGSSSNIGAGYDVHWYQHLPGTAPKLLIYNNNNRPSGVPDRFSASRSGTSASLAITGVQTEDEADYYCQSFDGRLSESGVFGGGTKLTVL

Changes are numbered by the printed parent chain.

In the first assay the target is SARS-CoV-2 spike protein, WA1/2020, borne on lentiviral pseudovirus (SARS-CoV-2, WA01/2020 strain, UniProt P0DTC2 14-1273). Briefly: cell-based or functional assay.
With B1, the “Pseudo Neut, WA1/2020 IC50 (pM)” value was determined as 952 pM.

Turning to B2, the “Pseudo Neut, WA1/2020 IC50 (pM)” value came to 213 pM.

Take B3: the “Pseudo Neut, WA1/2020 IC50 (pM)” value is over 163 pM.

Consider B4, for which the “Pseudo Neut, WA1/2020 IC50 (pM)” value stood at 90600 pM.

With B5, the “Pseudo Neut, WA1/2020 IC50 (pM)” value is 116000 pM.

In the case of B6, the “Pseudo Neut, WA1/2020 IC50 (pM)” value was found to be 584 pM.

Take B7: the “Pseudo Neut, WA1/2020 IC50 (pM)” value worked out at 795 pM.

Turning to B8, the “Pseudo Neut, WA1/2020 IC50 (pM)” value was determined as 276 pM.

With B9, the “Pseudo Neut, WA1/2020 IC50 (pM)” value is 420 pM.

With B10, the “Pseudo Neut, WA1/2020 IC50 (pM)” value came to 65 pM.

Regarding B11, the “Pseudo Neut, WA1/2020 IC50 (pM)” value is 214 pM.

On to B12, for which the “Pseudo Neut, WA1/2020 IC50 (pM)” value turned out to be 95000 pM.

B13: the “Pseudo Neut, WA1/2020 IC50 (pM)” value amounted to 82 pM.

Consider B14, for which the “Pseudo Neut, WA1/2020 IC50 (pM)” value worked out at 427 pM.

In another assay the target is S2 subunit of the SARS-CoV-2 spike protein, WA01/2020 strain (SARS-CoV-2, WA01/2020 strain, UniProt P0DTC2 686-1213). Briefly: ELISA, antibody at 0.1 ug/mL. In general terms: In an ELISA, binding on a coated surface is turned into a signal by an enzyme label.
On to B1, for which the binding result is “no binding (tested: 0.1 ug/mL)”.

For B6, the binding result is listed as “no binding (tested: 0.1 ug/mL)”.

As to B7, the binding result is recorded as “no binding (tested: 0.1 ug/mL)”.

Take B8: the binding result is recorded as “no binding (tested: 0.1 ug/mL)”.

For B10, the binding result was “no binding (tested: 0.1 ug/mL)”.

Take B11: the binding result is “no binding (tested: 0.1 ug/mL)”.

Regarding B14, the binding result was “no binding (tested: 0.1 ug/mL)”.

For a further assay, the target named is T1, SARS-CoV-2 nucleocapsid (N) protein (SARS-CoV-2, UniProt P0DTC9 1-419). Description: ELISA, antibody at 0.1 ug/mL.
Turning to B1, the binding result is “no binding (tested: 0.1 ug/mL)”.

On to B6, for which the binding result is on record as “no binding (tested: 0.1 ug/mL)”.

For the molecule B7, the binding result is reported as “no binding (tested: 0.1 ug/mL)”.

With B8, the binding result is reported as “no binding (tested: 0.1 ug/mL)”.

For the molecule B10, the binding result is on record as “no binding (tested: 0.1 ug/mL)”.

Regarding B11, the binding result is listed as “no binding (tested: 0.1 ug/mL)”.

For B14, the binding result is given as “no binding (tested: 0.1 ug/mL)”.

The target of another assay is S1 subunit of the SARS-CoV-2 spike protein, WA01/2020 strain (SARS-CoV-2, WA01/2020 strain, UniProt P0DTC2 16-685). Briefly: ELISA screening, antibody concentration not given.
On to B15, for which the binding result was “no binding (tested: not printed)”.

Regarding B16, the binding result is given as “no binding (tested: not printed)”.

B17: the binding result is given as “no binding (tested: not printed)”.

B18: the binding result is “no binding (tested: not printed)”.

Another assay has as its target T1, SARS-CoV-2 nucleocapsid (N) protein. Description: ELISA screening, antibody concentration not given.
On to B15, for which the binding result was “no binding (tested: not printed)”.

Turning to B16, the binding result is on record as “no binding (tested: not printed)”.

Consider B17, for which the binding result is “no binding (tested: not printed)”.

In the case of B18, the binding result was “no binding (tested: not printed)”.
